Experimental data from patent US20130084301A1.

Key:
CD81 = CD81 (UniProt P60033); test: cell-based or functional assay
[1] = target: HCV E2 glycoprotein, genotype 1a (H77c) (hepatitis C virus genotype 1a, H77c) (UniProt P27958)
[2] = target: E2 of genotype 1a HCVcc (hepatitis C virus genotype 1a); test: cell-based or functional assay

Sequence of CD81 (P60033 whole entry): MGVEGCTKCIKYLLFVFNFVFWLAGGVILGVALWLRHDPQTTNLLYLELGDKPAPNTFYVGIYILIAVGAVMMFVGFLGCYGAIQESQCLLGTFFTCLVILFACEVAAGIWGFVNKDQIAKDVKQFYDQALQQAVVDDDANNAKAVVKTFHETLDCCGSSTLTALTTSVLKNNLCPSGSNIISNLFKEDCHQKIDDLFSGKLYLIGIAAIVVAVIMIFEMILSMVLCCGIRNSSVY

| Substance | reduction in viral infectivity, mutant 1a HCVpp (luciferase) (CD81) | % reduction of E2 binding to CD81 [1] | 50% inhibition, neutralization of 1a HCVcc [2] |
| --- | --- | --- | --- |
| HCV 1a E2 with alanine substitution at 443 (from UniProt P27958 384-746) | 79% |  |  |
| HCV 1a E2 with alanine substitution at 446 (from UniProt P27958 384-746) | 60% |  |  |
| HCV 1a E2 with alanine substitution at 616 (from UniProt P27958 384-746) | > 95% |  |  |
| HCV 1a E2 with alanine substitution at 613 (from UniProt P27958 384-746) | > 95% |  |  |
| HCV 1a E2 with alanine substitution at 437 (from UniProt P27958 384-746) | > 95% |  |  |
| HCV 1a E2 with alanine substitution at 428 (from UniProt P27958 384-746) | 84% |  |  |
| CBH-5 (antibody) |  | > 90% | > 100 µg/mL |
| HCV 1a E2 with alanine substitution at 442 (from UniProt P27958 384-746) | > 95% |  |  |
| HCV 1a E2 with alanine substitution at 420 (from UniProt P27958 384-746) | > 95% |  |  |
| HCV 1a E2 with alanine substitution at 441 (from UniProt P27958 384-746) | > 95% |  |  |
| HCV 1a E2 with alanine substitution at 429 (from UniProt P27958 384-746) | > 95% |  |  |
